Measured values: patent US20240141039A1 (AGENUS, published 2024)
Blank lines part the entries; values can stand above or below the binder they belong to.

Key:
[1] = biological target: T1, full-length human FcγRIIIa variant V/V expressed on CHO cells (human, UniProt P08637 17-254); assay: flow cytometry, human FcγRIIIa (V/V) CHO cells, geomean of 2 experiments
T1 construct: whole, on cells; also called human FcγRIIIa-CHO (variant V/V); human FcγRIIIa (V/V) CHO cells
Experimental: The ability of anti-TIGIT×CD96 multispecific molecules to bind to variant V/V or variant F/F of human FcγRIIIa expressed on the surface of CHO cells was assessed. Briefly, CHO cells were transfected with a vector encoding full-length human FcγRIIIa (human FcγRIIIa-CHO) variant V/V or F/F, and clones stably expressing FcγRIIIa (variant V/V or variant F/F) were selected.
(§1) For the antibody binding assay, a frozen aliquot of human FcγRIIIa-CHO (variant V/V or variant F/F) cells was thawed at 37° C. and then transferred to a tube containing DPBS supplemented with 0.5% Bovine Serum Albumin and 0.05% Sodium Azide (FACS Buffer). Cells were centrifuged at 300 g for five minutes. The supernatant was discarded, and cells resuspended in FACS buffer were seeded in a 96-well U-bottom tissue culture plate at a density of 2×10⁵ cells per well in 50 μL. In a separate microplate, a 2× concentrated intermediate stock of each multispecific molecule was prepared. […] After a 30-minute incubation on ice, the cells were washed twice with cold FACS Buffer, and the cells were analyzed by flow cytometry (BD LSR Fortessa Flow Cytometer). The data were analyzed using the FlowJo software by sequentially gating the FSC-A vs. SSC-A, and SSC-H vs. SSC-A. Mean fluorescence intensity (MFI) values for PE were calculated, and the data were plotted by GraphPad Prism software.

[2] = biological target: T2, wild type full-length human CD96 isoform 2 expressed on CHO cells (human, UniProt P40200-2 22-569); assay: flow cytometry, human CD96 (isoform 2) CHO cells, geomean of 2 experiments
T2 construct: whole, on cells; also called human CD96-CHO (isoform 2); human CD96 (iso2) CHO cells
T2 sequence (looked up): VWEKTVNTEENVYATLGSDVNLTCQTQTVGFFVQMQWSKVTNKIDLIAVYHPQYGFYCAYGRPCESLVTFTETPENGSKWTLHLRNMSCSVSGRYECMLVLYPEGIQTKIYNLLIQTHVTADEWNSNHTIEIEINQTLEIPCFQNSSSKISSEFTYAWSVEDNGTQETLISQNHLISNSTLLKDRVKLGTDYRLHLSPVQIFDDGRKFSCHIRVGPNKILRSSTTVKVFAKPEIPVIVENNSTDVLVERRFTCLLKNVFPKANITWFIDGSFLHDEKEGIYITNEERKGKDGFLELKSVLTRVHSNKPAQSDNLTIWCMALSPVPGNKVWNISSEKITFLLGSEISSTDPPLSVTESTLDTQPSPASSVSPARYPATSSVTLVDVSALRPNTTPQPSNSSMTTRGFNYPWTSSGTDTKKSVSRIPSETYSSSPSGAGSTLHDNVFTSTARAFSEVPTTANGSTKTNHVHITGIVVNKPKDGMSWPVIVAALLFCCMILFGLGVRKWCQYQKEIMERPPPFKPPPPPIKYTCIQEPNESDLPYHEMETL
Experimental: as §1, with “CD96-CHO cells (isoform 1” for “FcγRIIIa-CHO (variant V/V”, “isoform 2)” for “variant F/F) cells”, “antibody” for “multispecific molecule”, “prepared. Antibodies were serially diluted 1-to-3 in FACS buffer. A total of 11 working dilutions ranging from 60 μg/mL to 0.001 μg/mL were prepared. Fifty microlitres of each dilution were then transferred to the microplate containing human CD96-CHO cells. The cells were then incubated for 45 minutes at 4° C.” for “prepared.”

[3] = biological target: T3, wild type full-length cynomolgus monkey TIGIT expressed on CHO cells (cynomolgus monkey, UniProt A0A7N9I9V4 89-312); assay: flow cytometry, blocking of human CD155-Fc-PE binding to CHO cells expressing cynomolgus TIGIT
T3 construct: whole, on cells; also called cynomolgus TIGIT-CHO cells

[4] = biological target: T4, wild type full-length human TIGIT expressed on cells (human, UniProt Q495A1 22-244); assay: flow cytometry, blocking of human CD155-Fc-PE binding to CHO cells expressing human TIGIT
T4 construct: whole, on cells; also called human TIGIT-CHO; human TIGIT CHO cells
T4 sequence (looked up): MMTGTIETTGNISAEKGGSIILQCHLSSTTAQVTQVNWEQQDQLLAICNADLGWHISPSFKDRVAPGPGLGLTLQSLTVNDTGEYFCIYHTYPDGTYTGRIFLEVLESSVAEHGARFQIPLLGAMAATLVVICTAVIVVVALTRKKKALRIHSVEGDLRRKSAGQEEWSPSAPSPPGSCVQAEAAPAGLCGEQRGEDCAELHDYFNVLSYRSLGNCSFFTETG
Experimental: A 4× concentrated intermediate stock of each multispecific molecule was prepared in a microplate. Antibodies were serially diluted 1-to-3 in FACS buffer. […] Lastly, 25 μL of human TIGIT-CHO cells, prepared as described above, were added to each well. After a 30-minute incubation on ice, the cells were washed twice with cold FACS Buffer, and the cells were analyzed by flow cytometry (BD LSR Fortessa Flow Cytometer). The data were analyzed using the FlowJo software by sequentially gating on the FSC-A vs. SSC-A and SSC-H vs. SSC-A. Mean fluorescence intensity (MFI) values for PE were calculated, and the data were plotted by GraphPad Prism software and analyzed as described above.

T1 sequence (P08637 other isoform, or with tags, fused parts or gaps mutant limits assumed): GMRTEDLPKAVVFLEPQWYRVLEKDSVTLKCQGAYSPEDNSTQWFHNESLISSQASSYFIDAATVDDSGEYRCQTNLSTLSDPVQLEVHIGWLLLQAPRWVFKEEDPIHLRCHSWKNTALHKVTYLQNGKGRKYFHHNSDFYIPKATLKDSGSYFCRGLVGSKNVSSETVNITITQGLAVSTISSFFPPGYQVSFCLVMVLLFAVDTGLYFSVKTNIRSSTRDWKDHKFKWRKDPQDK
T3 sequence (A0A7N9I9V4 entry or part of it): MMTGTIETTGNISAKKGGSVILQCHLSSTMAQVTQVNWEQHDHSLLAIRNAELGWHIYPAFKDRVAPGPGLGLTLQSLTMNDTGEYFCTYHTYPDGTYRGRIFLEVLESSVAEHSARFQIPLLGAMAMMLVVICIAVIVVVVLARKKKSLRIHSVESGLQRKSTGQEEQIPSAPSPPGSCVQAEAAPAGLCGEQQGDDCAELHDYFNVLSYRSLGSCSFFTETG

- EC50 [1]: 0.189 µg/mL
- EC50 [2]: 0.196 µg/mL
B1: anti-TIGIT×CD96 multispecific molecule BA123 (bispecific antibody, human IgG1, kappa, lambda)
heavy 1: QVQLVQSGAEVKKPGASVKVSCKASGYTFTSYGISWVRQAPGQGLEWMGWISAYNANTNYAQKLQGRVTMTTDTSTSTAYMELRSLRSDDTAVYYCARSAGVLGGMDVWGRGTLVTVSSASTKGPSVFPLAPSSKSTSGGTAALGCLVKDYFPEPVTVSWNSGALTSGVHTFPAVLQSSGLYSLSSVVTVPSSSLGTQTYICNVNHKPSNTKVDKRVEPKSCDKTHTCPPCPAPELLGGPDVFLFPPKPKDTLMISRTPEVTCVVVDVSHEDPEVKFNWYVDGVEVHNAKTKPREEQYNSTYRVVSVLTVLHQDWLNGKEYKCKVSNKALPAPIEKTISKAKGQPREPQVYTLPPSREEMTKNQVSLSCAVKGFYPSDIAVEWESNGQPENNYKTTPPVLDSDGSFFLVSKLTVDKSRWQQGNVFSCSVMHEALHNHYTQKSLSLSPG
light 1: not shown
heavy 2: EVQLVQSGAEVKKPGSSVKVSCKASGYTFASYGISWVRQAPGQGLEWMGGITPFFNRVDVAEKFQGRVTITADKSTSTAYIELSSLRSEDTAVYYCARDLRRGGVGDAFDIWGRGTLVTVSSASTKGPSVFPLAPSSKSTSGGTAALGCLVKDYFPEPVTVSWNSGALTSGVHTFPAVLQSSGLYSLSSVVTVPSSSLGTQTYICNVNHKPSNTKVDKRVEPKSCDKTHTCPPCPAPELLGGPDVFLFPPKPKDTLMISRTPEVTCVVVDVSHEDPEVKFNWYVDGVEVHNAKTKPREEQYNSTYRVVSVLTVLHQDWLNGKEYKCKVSNKALPLPEEKTISKAKGQPREPQVYTLPPSREEMTKNQVSLWCLVKGFYPSDIAVEWESNGQPENNYKTTPPVLDSDGSFFLYSKLTVDKSRWQQGNVFSCSVMHEALHNHYTQKSLSLSPG
light 2: QSALTQPRSVSGSPGQSVTISCTGTSPDVGSHAYRSWYQQHPGKAPKLMIYEVSYRPSGVSNRFSGSKSGNTASLTISGLQAEDEADYYCSSYPPSSATVFGAGTKLTVLGQPKAAPSVTLFPPSSEELQANKATLVCLISDFYPGAVTVAWKADSSPVKAGVETTTPSKQSNNKYAASSYLSLTPEQWKSHRSYSCQVTHEGSTVEKTVAPTEC
notes: copies: 1 + 1 + 1 + 1

- EC50 [1]: 0.148 µg/mL
- EC50 [2]: 0.0951 µg/mL
- IC50 (read off the curve) [3]: ~3 µg/mL
- IC50 (read off the curve) [4]: ~0.1 µg/mL
B2: anti-TIGIT×CD96 multispecific molecule BA127 (bispecific antibody, human IgG1, kappa, lambda)
heavy 1: QVQLVQSGAEVKKPGASVKVSCKASGYTFTTYALHWVRQAPGQRLEWMGWINTGSGDTKYSQKFQGRVTITRDTSASTAYMELSSLRSEDTAVYYCARSLGVYYGMDVWGQGTLVTVSSASTKGPSVFPLAPSSKSTSGGTAALGCLVKDYFPEPVTVSWNSGALTSGVHTFPAVLQSSGLYSLSSVVTVPSSSLGTQTYICNVNHKPSNTKVDKRVEPKSCDKTHTCPPCPAPELLGGPDVFLFPPKPKDTLMISRTPEVTCVVVDVSHEDPEVKFNWYVDGVEVHNAKTKPREEQYNSTYRVVSVLTVLHQDWLNGKEYKCKVSNKALPAPIEKTISKAKGQPREPQVYTLPPSREEMTKNQVSLSCAVKGFYPSDIAVEWESNGQPENNYKTTPPVLDSDGSFFLVSKLTVDKSRWQQGNVFSCSVMHEALHNHYTQKSLSLSPG
light 1: not shown
heavy 2: B1 heavy 2
light 2: B1 light 2
notes: Anti-CD96 arm = BA139, anti-TIGIT arm = BA150; copies: 1 + 1 + 1 + 1
